B1: chimeric 166-32 Fab (Fab, V domains shown)
VH: QIQLVQSGPELKKPGETVKISCKASGYTFTNYGMNWVKQAPGKGLKWMGWINTYTGETTYADDFKGRFVFSLETSASTAYLEINNLKNEDMATYFCEREGGVDNWGQGTTLTVSS
VL: ETTVTQSPASLSMAIGEKVTIRCITSTDIDDDMNWYQQKPGEPPKLLISGGNTLRPGVPSRFSSSGYGADFVFTIDNMLSEDVADYYCLQSDNLPYTFGGGTRLEIK
notes: Tested as a Fab; also called chimeric Fab
B2: humanized anti-Factor D Fab clone #250 (Fab, V domains shown)
VH: QVQLVQSGPELKKPGASVKVSCKASGYTFTNYGLNWVRQAPGQGLEWMGWINTYTGETTYADDFKGRFVFSLDTSVSTAYLQISSLKAEDTAVYYCEREGGVNNWGQGTLVTVSS
VL: DIQVTQSPSSLSASVGDRVTITCITSTDIDDDMNWYQQKPGKVPKLLISHGNTLRPGVPSRFSGSGSGTDFTLTISSLQPEDVATYYCLQSDSLPYTFGQGTKLEIK
B3: humanized anti-Factor D Fab clone #56 (Fab, V domains shown)
VH: QVQLVQSGPELKKPGASVKVSCKASGYTFTNYGMNWVKQAPGQGLEWMGWINTYTGETTYADDFKGRFVFSLDTSVSTAYLQISSLKAEDTATYYCEREGGVDNWGQGTLVTVSS
VL: DIQVTQSPSSLSASVRDRVTITCITSTDIDDDMNWYQQKPGKVPKLLISGGNTLRPGVPSRFSGSGSGTDFTLTISSLQPEDVATYYCLQSDNLPYTFGQGTKLEIK
B4: humanized anti-Factor D Fab clone #416 (Fab, V domains shown)
VH: QVQLVQSGPELKKPGASVKVSCKASGYTFTSYGMNWVRQAPGQGLEWMGWINTYTGETTYADDFKGRFVFSLDTSVSTAYLQISSLKAEDTAVYYCEREGGVNNWGQGTLVTVSS
VL: DIQVTQSPSSLSASVGDRVTITCITSTDIDDDMNWYQQKPGKVPKLLISDGNTLRPGVPSRFSGSGSGTDFTLTISSLQPEDVATYYCLQSDSLPYTFGQGTKLEIK

The values that follow come from patent US20130171070A1 (Genentech, published 2013).

For orientation: Kd means the concentration at which binding is half-saturated. Higher therefore signals lower affinity. Usually koff stands for a measure of how fast the partners let go of each other. Read a high koff as a short-lived complex. By kon is commonly meant a measure of how fast the partners come together. A low value points to slower complex formation.

The target of the experiment is T1, Human factor D (Advanced Research Inc) (human, UniProt P00746 26-253).
T1 construct: Amine-coupled directly to a CM5 chip for BIAcore; also called factor D antigen
T1 sequence (P00746 26-253 limits assumed): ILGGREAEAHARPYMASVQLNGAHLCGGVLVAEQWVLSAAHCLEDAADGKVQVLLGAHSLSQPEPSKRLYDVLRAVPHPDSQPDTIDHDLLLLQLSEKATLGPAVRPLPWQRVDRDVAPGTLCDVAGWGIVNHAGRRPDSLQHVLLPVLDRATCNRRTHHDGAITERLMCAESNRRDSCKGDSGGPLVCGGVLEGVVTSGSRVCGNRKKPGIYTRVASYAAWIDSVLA
Nature of the experiment: SPR (BIAcore), human factor D amine-coupled to CM5 chip, Fab as analyte, 1:1 model, global fit. As to the method:
Immobilization—Human factor D (Advanced Research Inc, 0.1 mg/ml) was directly immobilized onto the CM5 chip (BiaCore) using amine-coupling method. The procedure is briefly described as following: (1) Constant flow (PBS) is at 5 μl/min, (2) Injection of 35 μl EDC/NHS (1:1). (3) Injection of 35 μl of human factor D in acetate buffer, pH 4.5. (4) Block the activated group by injection of 35 μl etholamine. (5) Clean-up the surface by 5 μl 10 mM Glycine pH 1.5.
Kinetic analysis—All anti-human factor D Fabs were diluted in PBS buffer. Each sample was prepared in a series of concentrations: 12.5 nM, 25 nM. 50 nM, 75 nM, 100 nM, 125 nM, and 150 nM, with 40 μl injection pulse at high acquisition rate. Regeneration was accomplished by applying 5 μl pulse of 10 mM Glycine at pH 1.5. Kinetic parameters were obtained by fitting Fabs binding traces to 1:1 binding model under pseudo-first order kinetic using BIAvaluation version 3.0. All data are obtained by global fitting routine.
A general note: Surface plasmon resonance follows binding to a sensor surface in real time, without labels.
B1 showed a dissociation constant Kd of 2.7 nM, an off-rate (koff) of 0.0012 s⁻¹ and a kon of 440000 M⁻¹ s⁻¹.

Consider B2, for which the Kd came out at 0.33 nM, the koff is 0.00019 s⁻¹ and the kon is 570000 M⁻¹ s⁻¹.

Turning to B3, the Kd turned out to be 2.7 nM, the koff turned out to be 0.00098 s⁻¹ and the kon turned out to be 360000 M⁻¹ s⁻¹.

For B4, the Kd was determined as 0.33 nM, the koff is 0.00018 s⁻¹ and the kon is 820000 M⁻¹ s⁻¹.
